# Results taken from US20220177583A1.
# Changes are numbered by the printed parent chain.
# B1: AB1 (antibody, V domains shown)
# VH: QVQLQQSAAELARPGASVKMSCKASGYTFTTYTMHWVKQRPGQGLEWIGFINPSSGYTDYNQKFKDRTTLTADKSSSTVYMQLSSLTSEDSAVYYCANGDYYVAYWGQGTLVTVSA
# VL: QIVLTQSPAIMSASLGERVTMTCTASSSVSSTYFHWYQQKPGSSPKLWIYSTSNLASGVPRRFSGSASGTSYSLTISSMEAEDAATYYCHQYHRSPLTFGAGTKLELK
# B2: AB3 (antibody, V domains shown)
# VH: EVKLEESGGGLVQPGGSMKLSCVASGFTFSNYWMNWVRQSPEKGLEWVAQIRLKSDNYATHYAESVKGRFTISRDDSKRSVYLQMNNLRAEDTGTYYCNDGPPSGCWGQGTTLIVSS
# VL: DIQMTQSPASLSASVGETVTITCRISENIYSYLAWYQQKQGKSPQLLVYNAKILVEGVPSRFSGSGSGTQFSLKINSLQPEDFGNYYCQHHYTVPWTFGGGTKLEIK
# B3: AB2 (antibody, V domains shown)
# VH: B2 VH with N31D
# VL: B2 VL
# B4: AB4 (antibody, V domains shown)
# VH: QVQLQQSGAELARPGASVKMSCKASGYTFTSYTMHWIKQRPGQGQEWIGYINPSSTYTHYIKKFKDKATLTADKSSSTAYMQLRSLTSEDSAVYYCSRGELGGFAYWGQGTLVTVSA
# VL: DVVMTQTPLSLPVSLGDQASISCRSSQSLVHSDGNTYLNWYLQKPGQSPKLLIYKVSNRFSGVPDRFSGSGSGTDFTLKIRRVEAEDLGVYFCSQSTHVPYTFGGGTKLEIK
# B5: AB5 (antibody, V domains shown)
# VH: EVQLQQSGPELVKPGASVKMSCKASGYIFTHYIMHWVKQKPGQGLEWIGCINPYNDGTKYNEKFKGKATLTSDKSSSTAYMELSSLTSEDSAVYYCARYYGYPYYSMDYWGQGTSVTVSS
# VL: DVLMTQTPLSLPVSLGDQPSISCRSSQSIVHSNGNTYLDWYLQKPGQSPKLLIYKVSNRFSGVPDRFSGSGSGTDFTLKISRVEAEDLGVYYCFQGSHVPFTFGSGTRLEIK
# B6: AB6 (antibody, V domains shown)
# VH: DVQLQESGPGLVKSSQSLSLTCSVTGYSITSGYYWKWIRQFPGNKLEWMGYISYDGGINYNPSLKNRISITRDTSKNQFFLKLNSVTTEDTAKYYCARFGKGAMDYWGQGTSVTVSS
# VL: AIVMFQSPSSLVVSAGEKVTMSCKSSQSLLNSRTRKNYLAWYQQKPGQSPKLLIYWASTRESGVPDRFTGSGSGTDFTLTISSVQAEDLAVYYCKQSYYLYTFGGGTKLEIK
# B7: AB7 (antibody, V domains shown)
# VH: EVQLQQSGPELVKPGASMKISCKASGYSFTGYTMNWVKQSHGKNLEWIGLINPYNGGTNYNQKFKGKATLTVDKSSSTAYMELLSLTSEDSAVYYCARGVYDYDGFTYWGQGTLVTVSA
# VL: B1 VL with E17D, T32S, F34L, R61A, A67G, L97P, A101S, L107I
# B8: AB9 (antibody, V domains shown)
# VH: EVQLQQSGPELVKPGASVKMSCKASGYRFTDYNMHWVKQSHGKSLEWIGYINPNNGGTNYNQNFKGKATLTVNKSSSTAYMELRSLTSEDSAAYYCARDYLYFFDCWGQGTTLTVSS
# VL: DIQMTQSPASQSASLGESVTITCLASQTIGTWLAWYQQKPGKSPQLLIYAAASLADGVPSRFSGSGSGTRFSFKISSLQAEDFVSYYCQQLYSIPRTFGGGTKLEIK
# B9: AB10 (antibody, V domains shown)
# VH: QIQLVQSGPALKKPGETVKISCKASGYTFTDYSMHWIKQAPGKGLKWMGWISTETGEPTYADGFKGRFDFSLETSADTAYLSINNLTNEDTATYFCTRGLWSSFAYWGQGTLVTVSA
# VL: B4 VL with S25A, D33N, N39H, Y41F, G73R, R81S, S96I
# B10: AB11 (antibody, V domains shown)
# VH: DVQLVESGGGLVQPRGSRKLSCAASGFTFSSFGMHWVRQAPEKGLEWVAYISSDSRTIYYADTVKGRFTISRDNPTNTLFLQMTSLRSEDTAMYYCARDYGRTYEAYWGQGTLVTVSA
# VL: DIVLTQSPASLAVSLGQRATISCRASKSVSTSGYSYIHWYQQKPGQPPKLLIYLASNLESGVPARFSGSGSGTDFTLNIHPVEEEDAATYYCQHSRELPLTFGAGTKLELK
# B11: AB12 (antibody, V domains shown)
# VH: EVKLMESGGDLVKPGGSLKLSCAASGFTFSSYAMSWVRQTPEKRLEWVASIRSGGTTYYPDSVKGRFTISRDNARNILYLRMSSLRSEDTAIYYCAKVGGNPYPMDYWGQGTSVTVSS
# VL: DIQMIQSPSSMFASLGDRVSLSCRASQDIGGNLDWYQQKPGGTIKLLIYSTSNLNSGVPSRFSGSGSGSDYSLTITSLESEDFADYYCLQRNAYPLTFGAGTKLELK
# B12: AB13 (antibody, V domains shown)
# VH: QVQLQQSGAELVRPGTSVKVSCKASGYAFSNYLIEWVKQRPGQGLEWIGVINPGSGGTNYNEKFKGKATMTADKSSSTAYMHLSNLTSEDSVVYFCARSYFGRSYPYTMDYWGQGTSVTVSS
# VL: EIVLTQSPTTMAASPGEKITITCSASSSISSNYLHWYQQKPGFSPKLLIYRTSNLASGVPARFSGSGSGTSYSLTIGTMEAEDVATYYCQQGSSIPLTFGAGTKLELK
# B13: AB14 (antibody, V domains shown)
# VH: QVQLQQSGPELVRPGVSVKISCKGSGYTFTDYAMHWVKQSHAKSLEWIGVISTYSGNTNYNQKFQDKATMTVDKSSSTAYMALARLTSDDSAIYYCARRGDYSLYAMDYWGQGTSVTVSS
# VL: DIVLTQSPASLAVSLGQRATISCKASQSVDYDGDNYVNWYQQKVGQPPKLLISAASNLESGIPARFSGSGSGTDFTLNIHPVEEEDAATYYCQQSNEDPFTFGSGTKLEIK
# B14: AB17 (antibody, V domains shown)
# VH: QVQLQQSGAELAKPGASVKMSCKASGYTFTGYWMHWVKQRPGQGLEWLGYINPSTGYTESNQKFKDKATLTADKSSTTAYMQLRSLTPEDSAVYYCAREGITTVLVDYWGQGTTLTVSS
# VL: B1 VL with T32S, F34L, R61A, A67G, L97P
# B15: AB18 (antibody, V domains shown)
# VH: QVQLKQSGPELEKPGASVKISCKASGYSFTGYNMNWVKQSNGKSLEWIGNIDPYYGGSTYNQKFTGKATLTVDKSSSTAYMQLKSLTSEDSAVYYCARERSGYVFSAMDYWGQGTSVTVSS
# VL: NIMMTQSPSSLAVSAGEKVTMSCKSSQSVLFSSNQKNYLAWYQQKPGQSPRLLIYWASTRESGVPDRFTGSGSGTDFTLTISNVQAEDLAVYYCHQYLSSRTFGAGTKLELK
# B16: AB15 (antibody, V domains shown)
# VH: B10 VH
# VL: B15 VL
# B17: AB19 (antibody, V domains shown)
# VH: EVQLQQSGPELVKPGGSMKISCKASGYSFTGYTMNWVKRSHGKNLEWIGLINPYNGVTTYNQNFKGKATLAVDKSSSTAYMELLGLTSEDSAVYYCTRDPLYYGYRDSTMDYWGQGTSVTVSS
# VL: B15 VL
# B18: AB11-2 (antibody, V domains shown)
# VH: EVQLVESGGGLVQPGGSLRLSCAASGFTFSSFGMHWVRQAPGKGLEWVAYISSDSRTIYYADSVKGRFTISRDNAKNSLYLQMNSLRAEDTAVYYCARDYGRTYEAYWGQGTLVTVSS
# VL: DIVMTQSPDSLAVSLGERATINCRASKSVSTSGYSYIHWYQQKPGQPPKLLIYLASNLESGVPDRFSGSGSGTDFTLTISSLQAEDVAVYYCQHSRELPLTFGQGTKLEIK
# B19: AB11-3 (antibody, V domains shown)
# VH: B18 VH
# VL: B18 VL with M4L, L82V, I110L
# B20: AB3-7 conjugated to MC-VC-PAB-MMAE (conventional) (antibody, V domains shown)
# VH: EVQLLESGGGLVQPGGSMRLSCAASGFTFSNYWMNWVRQAPGKGLEWVAQIRLKSDNYATHYADSVKGRFTISRDDSKNTVYLQMNSLRAEDTGVYYCNDGPPSGSWGQGTLLTVSS
# VL: DIQMTQSPSSLSASVGDRVTITCRISENIYSYLAWYQQKPGKAPKLLVYNAKILVEGVPSRFSGSGSGTDFTLTISSLQPEDFGTYYCQHHYTVPWTFGQGTKLEIK
# modifications: MC-VC-PAB-MMAE conjugated to the antibody, heterogeneous (conventional); sites not stated
# B21: AB3-7 conjugated to MC-VC-PAB-MMAE (D4 technology) (antibody, V domains shown)
# VH: B20 VH
# VL: B20 VL
# modifications: MC-VC-PAB-MMAE conjugated to the antibody, substantially 4 drugs per antibody (D4); sites not stated
# Molecular target: human CLDN6 fused to GFP, expressed on engineered HEK293T cells (human) (UniProt P56747)
# Experiment: FACS dose curve, labelled mAb, HEK293T-CLDN6-mGFP cells
row,Binder,EC50 [nM]
1,B1,109
2,B2,604
3,B3,182
4,B4,17
5,B5,10
6,B6,1430
7,B7,579
8,B8,2670
9,B9,2760
10,B10,1700
11,B11,5000
12,B12,5000
13,B13,5000
14,B14,2650
15,B15,5000
16,B16,5000
17,B17,5000

# Molecular target: human CLDN6 fused to GFP, expressed on engineered HEK293T cells (human) (UniProt P56747)
# Experiment: FACS, 293T clone with human CLDN6, 1.5 ug Ab
row,Binder,FACS signal
1,B18,2560
2,B19,2360

# Molecular target: CLDN3/4 endogenously expressed on LS513 and MCF7 cells
# Experiment: FACS dose curve, labelled mAb, LS513 cells
row,Binder,EC50 [nM]
1,B1,5000
2,B2,5000
3,B3,5000
4,B4,730
5,B5,781
6,B6,133
7,B7,635
8,B8,1040
9,B9,1950
10,B10,493
11,B11,2270
12,B12,1590
13,B13,1160
14,B14,5000
15,B15,5000
16,B16,5000
17,B17,5000

# Molecular target: human CLDN6 fused to GFP, expressed on engineered HEK293T cells (human) (UniProt P56747)
# Experiment: FACS, 293T clone with human CLDN6, 0.3 ug Ab
row,Binder,FACS signal
1,B18,1290
2,B19,1010

# Molecular target: human CLDN6 fused to GFP, expressed on engineered HEK293T cells (human) (UniProt P56747)
# Experiment: KinExA 4000, cell-based equilibrium titration; Cell Model HEK293T CLDN6-mGFP A11, Cells Detached by Versene; Equilibrium Curves 500pM, 10nM
row,Binder,Kd [nM]
1,B20,6.68
2,B21,5.34

# Molecular target: CLDN3/4 endogenously expressed on LS513 and MCF7 cells
# Experiment: FACS dose curve, labelled mAb, MCF7 cells
row,Binder,EC50 [nM]
1,B1,5000
2,B2,5000
3,B3,5000
4,B4,653
5,B5,1480
6,B6,1140
7,B7,979
8,B8,5000
9,B9,5000
10,B10,427
11,B11,5000
12,B12,5000
13,B13,546
14,B14,5000
15,B15,5000
16,B16,5000
17,B17,5000
